Tests used:
[1] = tested on: New Zealand white rabbits; assay: Pilot study: safety of inhaled bromelain in rabbits; conditions: rabbit, in vivo
Text: In this pilot study. […] Ten minutes waiting period was kept between Salbutamol administration and treatment. Each rabbit received one cumulative dose of bromelain using a nebulizer and a v-gel supraglottal airway device as below. The pilot study was divided into 2 experiments as follows:
Experiment 1: Two rabbits were used in the first bromelain aerosol administration experiment. The first rabbit received an aerosol of physiological saline solution (0.9% NaCl), the second rabbit received aerosolized bromelain 0.1 mg/mL (accumulative dose of 0.19 mg in 1.9 mL saline), over 16 min inhalation period (Table 1).
Experiment 2: Three rabbits were used in the second bromelain aerosol administration experiment. The first rabbit received an aerosol of physiological saline solution (0.9% NaCl), the second one received aerosolized low dose of bromelain 0.01 mg/mL (accumulative dose of 0.025 mg bromelain in 2.5 mL saline), the third rabbit received aerosolized high dose of bromelain 0.1 mg/mL (accumulative dose of 0.25 mg bromelain in 2.5 mL saline), over 11 min inhalation period.
Rabbits were euthanized 48 h post-treatment using IV Sodium pentobarbitone 100 mg/kg while animals were sedated using isoflurane.

[2] = Dynamic viscosity after mixing with BromAc, DNase and combinations; conditions: for Dynamic viscosity (¥): heads: BR(25 ug/ml), NAC(20 mg/ml), BR(250 ug/ml) + NAC(20 ug/ml)
Experimental: (§1) Artificial sputa was prepared following methodology with ingredients as in earlier experiments. To 1.5 ml of artificial sputa in a vial was added 0.5 ml of reagent containing the required bromelain, NAC, DNase and their combinations. Control vials included 0.5 ml of PBS only. The mixture was vortex mixed and incubated in a shaker water bath at 37 deg C. At the end of 1 hour, the samples were retrieved, vortex mixed and equilibrated to ambient room temperature before measuring dynamic viscosity and pipette flow.
(§2) Dynamic viscosity was determined using the capillary tube method as in earlier experiments, whilst the pipette flow was evaluated using a 0.5 ml pipette inclined at 60 deg angle. The pipette flow was calculated as shown below.

[3] = Sputum flow speed after mixing with BromAc, DNase and combinations; conditions: BR 250 ug/ml, NAC 20 mg/ml where present, 1 hour, 37 deg C
Experimental: as §1, §2
Pipette flow (€)=0.45 ml sputa/time to empty (sec).

Row | Molecule | activities, food and drink intake, breathing [1] | effect on dynamic viscosity compared with other treatment groups ([2]; DNase 2-20 μg/ml) | Dynamic viscosity (¥) ([2]; plus DNASE 2.0 ug/ml) | Dynamic viscosity (¥) ([2]; plus DNASE 4.0 ug/ml) | Dynamic viscosity (¥) ([2]; plus DNASE 6.0 ug/ml) | Dynamic viscosity (¥) ([2]; plus DNASE 8.0 ug/ml) | Dynamic viscosity (¥) ([2]; plus DNASE 20 ug/ml) | Dynamic viscosity (¥) ([2]; plus DNASE 10. ug/ml) | Sputum flow speed (€) ([3]; plus DNASE 2.0 ug/ml) | Sputum flow speed (€) ([3]; plus DNASE 4.0 ug/ml) | Sputum flow speed (€) ([3]; plus DNASE 6.0 ug/ml) | Sputum flow speed (€) ([3]; plus DNASE 8.0 ug/ml) | Sputum flow speed (€) ([3]; plus DNASE 20 ug/ml) | Sputum flow speed (€) ([3]; plus DNASE 10. ug/ml)
1 | Bromelain | normal |  |  |  |  |  |  |  |  |  |  |  |  | 
2 | DNASE: enzyme hydrolysing phosphodiester bonds of dsDNA; marketed under the brand name Pulmozyme for cystic fibrosis sputa (protein, UniProt P24855 23-282, looked up) Deoxyribonuclease-1: LKIAAFNIQTFGETKMSNATLVSYIVQILSRYDIALVQEVRDSHLTAVGKLLDNLNQDAPDTYHYVVSEPLGRNSYKERYLFVYRPDQVSAVDSYYYDDGCEPCGNDTFNREPAIVRFFSRFTEVREFAIVPLHAAPGDAVAEIDALYDVYLDVQEKWGLEDVMLMGDFNAGCSYVRPSQWSSIRLWTSPTFQWLIPDSADTTATPTHCAYDRIVVAGMLLRGAVVPDSALPFNFQAAYGLSDQLAQAISDHYPVEVMLK |  | less compared to all the other treatment groups | 1.64 cSt | 1.60 cSt | 1.57 cSt | 1.514 cSt | 1.379 cSt | 1.472 cSt | 0.0627 mL/s | 0.075 mL/s | 0.082 mL/s | 0.09 mL/s | 0.1125 mL/s | 0.1044 mL/s
